{
  "source": "patent US9737089B2",
  "about": "“Milk-based nutritional compositions containing lactoferrin and uses thereof” (Mead Johnson Nutrition Company, priority 2012, dated 2017)",
  "origin": "cited, not measured here",
  "test_system": "EPEC adhesion to HeLa cells",
  "conditions": "Nascimento de Arujao et al., BMC Microbiol. 1:25 (2001)",
  "data": [
    {"molecule": "human lactoferrin: iron-binding glycoprotein, one of the major multifunctional agents present in human milk (protein, UniProt P02788 20-710, looked up) Lactotransferrin: GRRRSVQWCAVSQPEATKCFQWQRNMRKVRGPPVSCIKRDSPIQCIQAIAENRADAVTLDGGFIYEAGLAPYKLRPVAAEVYGTERQPRTHYYAVAVVKKGGSFQLNELQGLKSCHTGLRRTAGWNVPIGTLRPFLNWTGPPEPIEAAVARFFSASCVPGADKGQFPNLCRLCAGTGENKCAFSSQEPYFSYSGAFKCLRDGAGDVAFIRESTVFEDLSDEAERDEYELLCPDNTRKPVDKFKDCHLARVPSHAVVARSVNGKEDAIWNLLRQAQEKFGKDKSPKFQLFGSPSGQKDLLFKDSAIGFSRVPPRIDSGLYLGSGYFTAIQNLRKSEEEVAARRARVVWCAVGEQELRKCNQWSGLSEGSVTCSSASTTEDCIALVLKGEADAMSLDGGYVYTAGKCGLVPVLAENYKSQQSSDPDPNCVDRPVEGYLAVAVVRRSDTSLTWNSVKGKKSCHTAVDRTAGWNIPMGLLFNQTGSCKFDEYFSQSCAPGSDPRSNLCALCIGDEQGENKCVPNSNERYYGYTGAFRCLAENAGDVAFVKDVTVLQNTDGNNNEAWAKDLKLADFALLCLDGKRKPVTEARSCHLAMAPNHAVVSRMDKVERLKQVLLHQQAKFGRNGSDCPDKFCLFQSETKNLLFNDNTECLARLHGKTTYEKYLGPQYVAGITNLKKCSTSPLLEACEFLRK", "values": [
      {"measurement": "inhibition of adhesion of EPEC to HeLa cells", "value": "can inhibit the adhesion"}
    ]}
  ]
}
